The record followed here is US20210032351A1 (XDCEXPLORER SHANGHAI, published 2021).

Sequences and labels used below:
B1: Murine anti-46C4 (antibody, V domains shown)
VH: EVHLQQSVAELVRPGASVKLSCTASGFNIKNTYMHWVKQRPEQGLEWIGRIDPANGNTKYAPKFQGKATITADTSSNTAYLQLSSLTSEDTAIYYCASDFDYWGQGTTLTVSS
VL: DVLMTQTPLSLPVSLGDQVSISCRSSQSIVNSNGNTHLEWYLQKPGQSPKVLIYKVSKRFSGVPDRFSGSGSGTDFTLKISRVEAEDLGVYYCFQGSHVPYTFGGGTKLEIK
notes: murine hybridoma antibody; also called 46C4A6
B2: Murine anti-49G12 (antibody, V domains shown)
VH: EVQLLQSGAELVKPGASVKLSCTASGFNIKDYYMHWVKQRTEQGLEWIGRIDPEDGETKYAPKFQGKATMTADTSSNTAYLQLSSLTSEDTAVYYCASSAYYGRNYWGQGTTLTVSS
VL: QIVLTQSPAIMSASPGEKVTLTCSASSSLSSSYLYWYQQKPGSSPKLWIYSTSNLASGVPARFSGSGSGTSYSLTISSMEAEDAASYFCHQWSSYPYTFGGGTKLEIK
notes: murine hybridoma antibody; also called 49G12G5
B3: Murine anti-51G7 (antibody, V domains shown)
VH: B2 VH with L5Q, Y32F, M34I, G66D, M70I, T71I, A100S, R104N
VL: B2 VL with L29V, S32N, Y95F
notes: murine hybridoma antibody; also called 51G7C2
B4: Murine anti-56F10 (antibody, V domains shown)
VH: EVQLQQSGAELVKPGASVKLSCTASGFNIKDFYMHWVKQRTEQGLEWIGRIDPEDGETKYAPKFQGKATITADTSSNTAYLQLSSLTSEDTAVYYCGCRTGGFAYWGQGTLVTVSA
VL: QIVLTQSPAIMSASPGEKVTMTCSASSSVSYLYWYQQKPGSSPSLLIYDTSNLASGVPVRFSGSGSGTSYSLTISRMEAEDAATYYCQQWSRNPWTFGGGTKLEIK
notes: murine hybridoma antibody; also called 56F10G2
B5: Murine anti-59G3 (antibody, V domains shown)
VH: DVQLQESGPGLVKPSQSLSLTCSVTGYSITSGYYWHWIRQFPENKLEWMGYISYDGSNIYNPSLKNRISITRDTSKNQFFLKLNSVTTEDTATYYCAINSDYALDYWGQGTSVTVSS
VL: B4 VL with L32M, S44R, R92S, N93Y, P94S, W95L, G99A, I105L
notes: murine hybridoma antibody; also called 59G3F12
B6: Murine anti-64B11 (antibody, V domains shown)
VH: B4 VH with F32Y, S85N, T87P
VL: DILMTQSPSSMSVSLGDTVSITCHASQGINSNIGWLQQKPGKSFKALIYHGTNLEDGVPSRFSGSGSGADYSLTISSLESEDFADYYCVQYAQFPFTFGSGTELEIK
notes: murine hybridoma antibody; also called 64B11F2

Positions count from the first letter of the chain named.

In the first assay the target is T1, human EGFRvIII-hFc protein (human, UniProt P00533 25-645).
T1 construct: extracellular domain; made in HEK293 cells, purified on protein A; also called immunogen A; hFc-tagged EGFRvIII protein; not shown: human IgG Fc fragment (hFc) of the pCpC vector
The assay is described as follows: ELISA, coated EGFRvIII-hFc, antibody 0.01 nM. The gist of the method: (§1)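 Coat: EGFRvIII-hFc 1.0 μg/mL, 4° C o/n. Block: 1% BSA/PBS-Tween, 2 h RT. Ab 2 h 37° C; HRP 2° Ab 2 h 37° C. TMB 30 min, HCl stop, A450.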
B1: the OD450 nm turned out to be 0.15.
On the same count and under the same terms, as for B2, the figure is 0.14.
Same read-out and setting: as for B3, the figure is 0.15; as for B4, 0.11.
Same read-out and setting: with B5 the figure was 0.13; with B6, 0.09.

The target of a further assay is T1, human EGFRvIII-hFc protein. Description: ELISA, coated EGFRvIII-hFc, antibody 0.001 nM. The gist of the method: as §1
As to B1, the OD450 nm is 0.09.
On the same count and under the same terms, as for B2, the figure is 0.13; as for B3, 0.09.
On the same count and under the same terms, with B4 the figure was 0.1; with B5, 0.08; with B6, 0.08.

The next assay deals with T1, human EGFRvIII-hFc protein. Description: ELISA, coated EGFRvIII-hFc, antibody 0.1 nM. The gist of the method:
as §1
In the case of B1, the OD450 nm is 0.72.
Same read-out and setting: with B2 the figure was 0.64.
In turn, B3 returned an OD450 nm of 0.46.
The same measure, in the same setting: as for B4, the figure is 0.18.
The same measure, in the same setting: with B5 the figure was 0.49.
Molecule B6 yielded an OD450 nm of 0.24.

A further assay has as its target T2, human EGFR protein (wild-type), on cells (human, UniProt P00533 25-1210).
T2 construct: whole, on cells; transfected on CHO-K1 cells; endogenous on the human cell lines; the cell is named under assay; also called wild-type EGFR; hEGFR
Description: FACS on U87MG and HEB cells. The procedure: The collected cells are suspended to 2×10⁶ cells/mL with an FACS buffer (HBSS+1% BSA, with the percentage being the mass percentage), added to a 96-well FACS reaction plate at 100 μL/well, then added with 100 μL/well of the purified EGFRvIII antibody (samples to be tested) obtained in example 2, and incubated on ice for 2 hours. The plate is centrifugally washed twice with the FACS buffer, added with 100 μL/well of a fluorescence (Alexa 488) labeled secondary antibody (purchased from Invitrogen), and then incubated on ice for 1 hour. The plate is centrifugally washed 3 times with the FACS buffer, added with 100 μL/well of a fixing solution [4% (v/v) paraformaldehyde] for suspending the cells, and centrifugally washed twice with the FACS buffer after 10 minutes. The cells are suspended in 100 μL of the FACS buffer, and the results are detected and analyzed by FACS (FACS Calibur, purchased from BD). Data analysis is performed by using the software (CellQuest) to obtain the mean fluorescence intensity (MFI) of the cells. Data is further analyzed by using the software (GraphPad Prism5) to perform data fitting and calculate EC50. […] A431 cells (human epidermal cell cancer cell lines) have a large amount of wild-type EGFR protein expressed on the surface thereof. […] U87MG cells (human glioma cell lines) have a small amount of wild-type EGFR protein expressed on the surface thereof, while HEB cells (human glioma cell lines) have a high level of wild-type EGFR protein expression on the surface thereof.
Consider B1, for which the binding result is given as “no binding”.
Same read-out and setting: as for B2, the entry is “no binding”; as for B3, “no binding”; as for B4, “no binding”.
On the same count and under the same terms, as for B5, the entry is “no binding”; as for B6, “no binding”.

The target in the next assay is T1, human EGFRvIII-hFc protein. The assay is described as follows: ELISA, coated EGFRvIII-hFc, antibody 100 nM. The gist of the method:
as §1
In turn, B1 gave an OD450 nm of 3.83.
Still for that read-out and setting: with B2 the figure was 3.79; with B3, 3.68; with B4, 3.61.
Still for that read-out and setting: as for B5, the figure is 3.71; as for B6, 3.64.

In a further assay the target is T1, human EGFRvIII-hFc protein. The assay is described as follows: ELISA, coated EGFRvIII-hFc, antibody 1 nM. The gist of the method: as §1
B1 came in with an OD450 nm of 3.5.
Still for that read-out and setting: as for B2, the figure is 3.2; as for B3, 2.44; as for B4, 0.98.
The same measure, in the same setting: as for B5, the figure is 2.68; as for B6, 1.58.

The target in a further assay is T1, human EGFRvIII-hFc protein. The assay is described as follows: ELISA, coated EGFRvIII-hFc, antibody 0.0001 nM. The method in brief: as §1
Molecule B1 displayed an OD450 nm of 0.08.
On the same count and under the same terms, as for B2, the figure is 0.08; as for B3, 0.08; as for B4, 0.09.
On the same count and under the same terms, as for B5, the figure is 0.08; as for B6, 0.08.

The next assay has as its target T1, human EGFRvIII-hFc protein. The assay is described as follows: ELISA, coated EGFRvIII-hFc, antibody 10 nM. The method in brief:
as §1
B1 showed an OD450 nm of 3.85.
Take B2: the OD450 nm is 3.8.
On the same count and under the same terms, as for B3, the figure is 3.69; as for B4, 3.53; as for B5, 3.67.
For B6, the OD450 nm is 3.63.
